# Experimental data published in paper PMC3553500.
# Target: GAPDH (purified recombinant, no tag named) (UniProt P04406)
# Experiment: ELISA
# Chain of NleB-FLAG (purified) (enzyme) (Q5XMK8 whole entry): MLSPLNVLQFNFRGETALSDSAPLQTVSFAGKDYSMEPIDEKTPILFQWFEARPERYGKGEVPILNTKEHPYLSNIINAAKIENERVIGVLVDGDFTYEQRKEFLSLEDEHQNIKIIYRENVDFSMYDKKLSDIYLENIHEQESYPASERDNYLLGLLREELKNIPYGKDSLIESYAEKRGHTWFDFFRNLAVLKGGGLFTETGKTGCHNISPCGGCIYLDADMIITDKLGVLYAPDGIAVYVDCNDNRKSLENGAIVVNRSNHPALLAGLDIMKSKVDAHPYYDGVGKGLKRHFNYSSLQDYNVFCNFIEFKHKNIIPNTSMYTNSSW
substance,measurement,value
NleB-FLAG (purified) (enzyme),Kd,32 µM
